Our source for the IC50 values is the Immune Epitope Database (IEDB).

pIC50: −log10 of the molar value.

For test [1], the target named is HLA-A*02:06. Put plainly: IEDB peptide-MHC binding, cellular MHC/competitive/fluorescence; ≥ and ≤ were set here for values at or beyond the usual limits of such assays.
Test [2] deals with HLA-A*02:01. Put plainly: IEDB peptide-MHC binding, purified MHC/competitive/radioactivity; ≥ and ≤ were set here for values at or beyond the usual limits of such assays.
The target of another test is HLA-A*02:02. Described as above.
Another test concerns the target HLA-A*02:03. The description is as above.
The target in test [3] is HLA-A*68:02. The description is as above.
Test [4] has as its target HLA-A*02:01. The experiment in a line: IEDB peptide-MHC binding, cellular MHC/competitive/fluorescence; ≥ and ≤ were set here for values at or beyond the usual limits of such assays. The note with it: source organism: Vaccinia virus WR.
Test [5] concerns the target HLA-A*68:02. The test is described as above. The note with it: source organism: Vaccinia virus WR.
Test [6] deals with HLA-A*02:06. The experiment in a line: IEDB peptide-MHC binding, purified MHC/competitive/radioactivity; ≥ and ≤ were set here for values at or beyond the usual limits of such assays. Particulars: source organism: Vaccinia virus WR.
The mark [7] stands for this setting: source organism: Influenza A virus.
[8] abbreviates: source organism: Vaccinia virus WR.
The mark [9] stands for this setting: source organism: Mammarenavirus whitewaterense.

For CLINDPWVL, the negative logarithm of the IC50 (pIC50) with HLA-A*02:06 [1] (setting [7]) is 5.21; with HLA-A*02:01 [2] (setting [7]), 6.90; with HLA-A*02:02 (setting [7]), 6.51; with HLA-A*02:03 (setting [7]), 6.59; with HLA-A*68:02 [3] (setting [7]) it was 5.34.

Turning to DIMTSTRTI, the pIC50 with HLA-A*02:06 [1] (setting [8]) is 4.66; in the test with HLA-A*02:01 [2] (setting [8]), 5.46; with HLA-A*02:02 (setting [8]), 5.46; with HLA-A*02:03 (setting [8]), 7.10; with HLA-A*68:02 [3] (setting [8]), 7.11.

For DLFMSHVKSV, the pIC50 was 4.70 with HLA-A*02:06 [1] (setting [8]); 5.60 with HLA-A*02:01 [2] (setting [8]); 5.47 with HLA-A*02:02 (setting [8]); 7.38 with HLA-A*02:03 (setting [8]); 5.71 with HLA-A*68:02 [3] (setting [8]).

Regarding DLNAVTTNNL, the negative-log IC50 (pIC50) is 5.12 in the test with HLA-A*02:06 [1] (setting [8]); 5.79 with HLA-A*02:01 [2] (setting [8]); 5.74 in the test with HLA-A*02:02 (setting [8]); 5.79 in the test with HLA-A*02:03 (setting [8]); 5.47 in the test with HLA-A*68:02 [3] (setting [8]).

Consider DQDTMLFASA, for which the pIC50 was 5.13 with HLA-A*02:01 [4]; 5.25 in the test with HLA-A*68:02 [5]; 6.05 with HLA-A*02:02 (setting [8]); 6.18 with HLA-A*02:03 (setting [8]); 5.76 with HLA-A*02:06 [6].

With DTGKKELAL, the pIC50 with HLA-A*02:06 [1] (setting [8]) is 4.85; with HLA-A*02:01 [2] (setting [8]), 5.47; with HLA-A*02:02 (setting [8]), 6.94; with HLA-A*02:03 (setting [8]), 6.81; in the test with HLA-A*68:02 [3] (setting [8]), 5.47.

Consider EIMDKEQLL, for which the negative-log IC50 (pIC50) was 4.58 in the test with HLA-A*02:06 [1] (setting [8]); 5.40 with HLA-A*02:01 [2] (setting [8]); 6.74 with HLA-A*02:02 (setting [8]); 6.37 with HLA-A*02:03 (setting [8]); 6.54 with HLA-A*68:02 [3] (setting [8]).

Regarding ELLEMKYAL, the negative logarithm of the IC50 (pIC50) is 5.22 with HLA-A*02:06 [1] (setting [8]); 6.55 with HLA-A*02:01 [2] (setting [8]); 6.02 with HLA-A*02:02 (setting [8]); 6.06 in the test with HLA-A*02:03 (setting [8]); 5.82 with HLA-A*68:02 [3] (setting [8]).

With ELSRLRYNL, the pIC50 is 4.73 in the test with HLA-A*02:06 [1] (setting [8]); 6.14 with HLA-A*02:01 [2] (setting [8]); 9.03 with HLA-A*02:02 (setting [8]); 6.60 with HLA-A*02:03 (setting [8]); 9.00 in the test with HLA-A*68:02 [3] (setting [8]).

As to ELWARISSSL, the negative-log IC50 (pIC50) in the test with HLA-A*02:06 [1] (setting [8]) is 5.03; in the test with HLA-A*02:01 [2] (setting [8]) it was 5.88; with HLA-A*02:02 (setting [8]), 6.76; with HLA-A*02:03 (setting [8]) it was 6.49; with HLA-A*68:02 [3] (setting [8]) it was 7.66.

In the case of FIQWTGGNI, the pIC50 in the test with HLA-A*02:06 [1] (setting [8]) was 5.23; with HLA-A*02:01 [2] (setting [8]) it was 6.28; with HLA-A*02:02 (setting [8]), 6.17; with HLA-A*02:03 (setting [8]), 7.26; with HLA-A*68:02 [3] (setting [8]), 6.35.

In the case of FTEEQQQSFM, the negative logarithm of the IC50 (pIC50) was 5.00 with HLA-A*02:01 [4]; 5.09 with HLA-A*68:02 [5]; 5.95 with HLA-A*02:02 (setting [8]); 5.76 with HLA-A*02:03 (setting [8]); 6.08 with HLA-A*02:06 [6].

GINNVQSLI: the pIC50 in the test with HLA-A*02:01 [4] was 4.93; with HLA-A*68:02 [5], 4.51; in the test with HLA-A*02:02 (setting [8]), 6.32; with HLA-A*02:03 (setting [8]), 6.42; with HLA-A*02:06 [6], 5.76.

Turning to GLILFVLAL, the pIC50 with HLA-A*02:06 [1] (setting [8]) is 5.11; in the test with HLA-A*02:01 [2] (setting [8]), 6.76; with HLA-A*02:02 (setting [8]) it was 6.89; in the test with HLA-A*02:03 (setting [8]), 6.34; in the test with HLA-A*68:02 [3] (setting [8]), 5.36.

GTKGKLYIA: the negative logarithm of the IC50 (pIC50) in the test with HLA-A*02:01 [4] was 4.63; in the test with HLA-A*68:02 [5] it was ≤ 4.15; with HLA-A*02:02 (setting [8]) it was 5.77; with HLA-A*02:03 (setting [8]), 7.25; with HLA-A*02:06 [6], 5.60.

Turning to IISTDQDTML, the pIC50 is 5.07 with HLA-A*02:01 [4]; 4.49 with HLA-A*68:02 [5]; 6.35 in the test with HLA-A*02:02 (setting [8]); 5.74 in the test with HLA-A*02:03 (setting [8]); 6.18 with HLA-A*02:06 [6].

For the sequence KIDILQMREI, the negative logarithm of the IC50 (pIC50) was 5.19 with HLA-A*02:01 [4]; ≤ 4.15 with HLA-A*68:02 [5]; 5.89 with HLA-A*02:02 (setting [8]); 6.38 with HLA-A*02:03 (setting [8]); 6.06 with HLA-A*02:06 [6].

On to KIKQTGINNV, for which the pIC50 was 5.14 with HLA-A*02:01 [4]; 4.44 in the test with HLA-A*68:02 [5]; 6.63 with HLA-A*02:02 (setting [8]); 8.51 in the test with HLA-A*02:03 (setting [8]); 5.59 with HLA-A*02:06 [6].

Regarding KVTVPTNDHI, the negative logarithm of the IC50 (pIC50) with HLA-A*02:01 [4] is 4.88; with HLA-A*68:02 [5] it was 5.18; with HLA-A*02:02 (setting [8]) it was 5.33; with HLA-A*02:03 (setting [8]), 5.91; with HLA-A*02:06 [6] it was 5.44.

For LDFAKVASV, the negative-log IC50 (pIC50) with HLA-A*02:06 [1] (setting [9]) is 4.97; in the test with HLA-A*02:01 [2] (setting [9]), 5.32; in the test with HLA-A*02:02 (setting [9]) it was 7.21; with HLA-A*02:03 (setting [9]), 6.34; with HLA-A*68:02 [3] (setting [9]) it was 6.53.

LIAGIILLI: the negative logarithm of the IC50 (pIC50) is 5.09 with HLA-A*02:06 [1] (setting [8]); 6.96 with HLA-A*02:01 [2] (setting [8]); 9.77 in the test with HLA-A*02:02 (setting [8]); 7.41 with HLA-A*02:03 (setting [8]); 7.70 in the test with HLA-A*68:02 [3] (setting [8]).

For LLGLILFVL, the pIC50 is 5.09 in the test with HLA-A*02:06 [1] (setting [8]); 6.14 with HLA-A*02:01 [2] (setting [8]); 6.58 with HLA-A*02:02 (setting [8]); 5.73 with HLA-A*02:03 (setting [8]); 6.04 with HLA-A*68:02 [3] (setting [8]).

With LLNETAKVI, the pIC50 is 4.81 with HLA-A*02:06 [1] (setting [8]); 6.39 with HLA-A*02:01 [2] (setting [8]); 6.50 with HLA-A*02:02 (setting [8]); 7.15 in the test with HLA-A*02:03 (setting [8]); 6.06 in the test with HLA-A*68:02 [3] (setting [8]).
